Measurements as given in the supplement of paper PMC9112550, “Optimization of the antimicrobial peptide Bac7 by deep mutational scanning” (BMC Biology, 2022).

Test system: Escherichia coli TOP10
Assay: shrunken log2 fold change of peptide-encoding DNA abundance (4.5 h post-induction vs induction); higher = less antimicrobial activity (less host growth inhibition)
Settings: time post-induction: 4.5 h; library: site-saturation at positions 5, 18, 19, 20
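Note: peptides expressed intracellularly from a pBAD plasmid library in pooled LB shake-flask culture, induced with 0.3% L-arabinose, DNA abundance read by NGS, three biological replicates, DESeq2 with apeglm shrinkage.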

Row | Sequence | shrunken log2 fold change
1 | RRIRCRPPRLPRPRPRPFYNPRP | -1.05
2 | RRIRSRPPRLPRPRPRPIKLPRP | 0.0994
3 | RRIRVRPPRLPRPRPRPYDNPRP | -0.199
4 | RRIRNRPPRLPRPRPRPNCMPRP | -0.0251
5 | RRIRCRPPRLPRPRPRPSEQPRP | -0.0681
6 | RRIRFRPPRLPRPRPRPGVMPRP | 0.238
7 | RRIRYRPPRLPRPRPRPRNLPRP | -0.036
8 | RRIRERPPRLPRPRPRPSILPRP | -0.623
9 | RRIRSRPPRLPRPRPRPIALPRP | -0.385
10 | RRIRRRPPRLPRPRPRPNFNPRP | -0.0741
11 | RRIRLRPPRLPRPRPRPMFSPRP | -0.267
12 | RRIRYRPPRLPRPRPRPRCQPRP | -0.259
13 | RRIRLRPPRLPRPRPRPCFCPRP | -0.279
14 | RRIRWRPPRLPRPRPRPMPIPRP | 0.0953
15 | RRIRRRPPRLPRPRPRPCYLPRP | -0.499
16 | RRIRNRPPRLPRPRPRPNQNPRP | 0.337
17 | RRIRSRPPRLPRPRPRPDPLPRP | 0.0174
18 | RRIRFRPPRLPRPRPRPDVIPRP | 0.0834
19 | RRIRQRPPRLPRPRPRPKNGPRP | -0.159
20 | RRIRMRPPRLPRPRPRPCQHPRP | -0.188
21 | RRIRPRPPRLPRPRPRPPWMPRP | 0.407
22 | RRIRERPPRLPRPRPRPHSDPRP | -0.0192
23 | RRIRKRPPRLPRPRPRPPSGPRP | 1.1

Row | Sequence | shrunken log2 fold change
24 | RRIRKRPPRLPRPRPRPTIGPRP | 0.0992
25 | RRIRPRPPRLPRPRPRPYDSPRP | -0.977
26 | RRIRWRPPRLPRPRPRPNFVPRP | 0.292
27 | RRIRVRPPRLPRPRPRPHKPPRP | -0.0132
28 | RRIRHRPPRLPRPRPRPVKNPRP | 0.0467
29 | RRIRWRPPRLPRPRPRPLHRPRP | 0.0218
30 | RRIRWRPPRLPRPRPRPKFSPRP | 0.346
31 | RRIRNRPPRLPRPRPRPSSGPRP | -0.649
32 | RRIRLRPPRLPRPRPRPHDSPRP | 0.0936
33 | RRIRSRPPRLPRPRPRPQHIPRP | -1.21
34 | RRIRPRPPRLPRPRPRPTQWPRP | 0.248
35 | RRIRWRPPRLPRPRPRPNIHPRP | -0.392
36 | RRIRQRPPRLPRPRPRPRQRPRP | 0.245
37 | RRIRNRPPRLPRPRPRPYAIPRP | -0.105
38 | RRIRKRPPRLPRPRPRPQADPRP | 0.0626
39 | RRIRCRPPRLPRPRPRPQCEPRP | -0.128
40 | RRIRERPPRLPRPRPRPFCCPRP | -0.0198
41 | RRIRYRPPRLPRPRPRPYNLPRP | 0.00739
42 | RRIRQRPPRLPRPRPRPYREPRP | -0.0135
43 | RRIRMRPPRLPRPRPRPRFAPRP | 0.728
44 | RRIRSRPPRLPRPRPRPVAQPRP | 0.101
45 | RRIRCRPPRLPRPRPRPAHSPRP | -0.129
46 | RRIRCRPPRLPRPRPRPFHQPRP | -0.429

Row | Sequence | shrunken log2 fold change
47 | RRIRIRPPRLPRPRPRPFLEPRP | -1.1
48 | RRIRWRPPRLPRPRPRPYASPRP | -0.121
49 | RRIRARPPRLPRPRPRPVQCPRP | 0.22
50 | RRIRIRPPRLPRPRPRPALQPRP | -0.011
51 | RRIRSRPPRLPRPRPRPKTFPRP | -0.24
52 | RRIRERPPRLPRPRPRPIALPRP | -0.0132
53 | RRIRSRPPRLPRPRPRPYKYPRP | -0.637
54 | RRIRGRPPRLPRPRPRPWKNPRP | -0.138
55 | RRIRLRPPRLPRPRPRPRNRPRP | 0.267
56 | RRIRVRPPRLPRPRPRPFWEPRP | -0.0891
57 | RRIRQRPPRLPRPRPRPRCAPRP | 0.385
58 | RRIRKRPPRLPRPRPRPFWLPRP | 0.341
59 | RRIRMRPPRLPRPRPRPLGNPRP | -0.0024
60 | RRIRYRPPRLPRPRPRPRRDPRP | -0.17
61 | RRIRYRPPRLPRPRPRPIGAPRP | -0.419
62 | RRIRQRPPRLPRPRPRPCDHPRP | 0.00902
63 | RRIRTRPPRLPRPRPRPQRDPRP | 0.347
64 | RRIRIRPPRLPRPRPRPIHKPRP | -0.782
65 | RRIRWRPPRLPRPRPRPDRWPRP | 0.827
66 | RRIRSRPPRLPRPRPRPPTEPRP | 0.194
67 | RRIRWRPPRLPRPRPRPIENPRP | 0.0363
68 | RRIRTRPPRLPRPRPRPGAIPRP | -0.0669
69 | RRIRVRPPRLPRPRPRPQIGPRP | -0.273

Row | Sequence | shrunken log2 fold change
70 | RRIRSRPPRLPRPRPRPTRMPRP | 1.03
71 | RRIRDRPPRLPRPRPRPKLVPRP | 0.0305
72 | RRIRKRPPRLPRPRPRPYCEPRP | -0.102
73 | RRIRCRPPRLPRPRPRPEERPRP | -0.0298
74 | RRIRKRPPRLPRPRPRPQLRPRP | 0.2
75 | RRIRNRPPRLPRPRPRPSWKPRP | 0.0635
76 | RRIRRRPPRLPRPRPRPLEKPRP | 0.477
77 | RRIRGRPPRLPRPRPRPLCDPRP | 0.778
78 | RRIRPRPPRLPRPRPRPTSQPRP | 0.0453
79 | RRIRFRPPRLPRPRPRPHVKPRP | -0.0318
80 | RRIRRRPPRLPRPRPRPGVQPRP | -0.00257
81 | RRIRRRPPRLPRPRPRPTISPRP | -0.28
82 | RRIRMRPPRLPRPRPRPRVHPRP | 0.446
83 | RRIRTRPPRLPRPRPRPWSMPRP | -0.36
84 | RRIRKRPPRLPRPRPRPPIMPRP | -0.0359
85 | RRIRTRPPRLPRPRPRPFVEPRP | -0.284
86 | RRIRLRPPRLPRPRPRPEYKPRP | -0.438
87 | RRIRPRPPRLPRPRPRPECHPRP | -0.0419
88 | RRIRWRPPRLPRPRPRPMFLPRP | -0.182
89 | RRIRKRPPRLPRPRPRPSMYPRP | -0.306
90 | RRIRRRPPRLPRPRPRPVPCPRP | 0.0337
91 | RRIRERPPRLPRPRPRPDAWPRP | 0.0128
